T1: peptide on HLA-B*07:02 (human)
T1 peptide: VPSVWRSSL

B1: R23 (TCR, V domains shown)
Valpha: KQEVTQIPAALSVPEGENLVLNCSFTDSAIYNLQWFRQDPGKGLTSLLLIQSSQREQTSGRLNASLDKSSGRSTLYIAASQPGDSATYLCAVRPQGGSEKLVFGKGTKLTVNP
Vbeta: EAQVTQNPRYLITVTGKKLTVTCSQNMNHEYMSWYRQDPGLGLRQIYYSMNVEVTDKGDVPEGYKVSRKEKRNFPLILESPSPNQTSLYFCASTVGGTQYFGPGTRLTVL
B2: R24 (TCR, V domains shown)
Valpha: GQQVMQIPQYQHVQEGEDFTTYCNSSTTLSNIQWYKQRPGGHPVFLIQLVKSGEVKKQKRLTFQFGEAKKNSSLHITATQTTDVGTYFCAVHMNRDDKIIFGKGTRLHILP
Vbeta: EAQVTQNPRYLITVTGKKLTVTCSQNMNHEYMSWYRQDPGLGLRQIYYSMNVEVTDKGDVPEGYKVSRKEKRNFPLILESPSPNQTSLYFCASSLTSFYEQYFGPGTRLTVT
B3: R28 (TCR, V domains shown)
Valpha: AQTVTQSQPEMSVQEAETVTLSCTYDTSESDYYLFWYKQPPSRQMILVIRQEAYKQQNATENRFSVNFQKAAKSFSLKISDSQLGDAAMYFCAYRSAGNQGAQKLVFGQGTRLTINP
Vbeta: ETGVTQSPTHLIKTRGQQVTLRCSSQSGHNTVSWYQQALGQGPQFIFQYYREEENGRGNFPPRFSGLQFPNYSSELNVNALELDDSALYLCASSLGRGTYEQYFGPGTRLTVT
B4: R26 (TCR, V domains shown)
Valpha: GQQVMQIPQYQHVQEGEDFTTYCNSSTTLSNIQWYKQRPGGHPVFLIQLVKSGEVKKQKRLTFQFGEAKKNSSLHITATQTTDVGTYFCAGQDYAGKSTFGDGTTLTVKP
Vbeta: DTGVSQNPRHKITKRGQNVTFRCDPISEHNRLYWYRQTLGQGPEFLTYFQNEAQLEKSRLLSDRFSAERPKGSFSTLEIQRTEQGDSAMYLCASSSGGRFYGYTFGSGTRLTVV
B5: R21 (TCR, V domains shown)
Valpha: AQKVTQAQTEISVVEKEDVTLDCVYETRDTTYYLFWYKQPPSGELVFLIRRNSFDEQNEISGRYSWNFQKSTSSFNFTITASQVVDSAVYFCALGTYGNNRLAFGKGNQVVVIP
Vbeta: NAGVTQTPKFRILKIGQSMTLQCAQDMNHNYMYWYRQDPGMGLKLIYYSVGAGITDKGEVPNGYNVSRSTTEDFPLRLELAAPSQTSVYFCASTKGGPSSYEQYFGPGTRLTVT
B6: R25 (TCR, V domains shown)
Valpha: GENVEQHPSTLSVQEGDSAVIKCTYSDSASNYFPWYKQELGKGPQLIIDIRSNVGEKKDQRIAVTLNKTAKHFSLHITETQPEDSAVYFCAAQKTSYDKVIFGPGTSLSVIP
Vbeta: EAQVTQNPRYLITVTGKKLTVTCSQNMNHEYMSWYRQDPGLGLRQIYYSMNVEVTDKGDVPEGYKVSRKEKRNFPLILESPSPNQTSLYFCASSTPGSLNEQFFGPGTRLTVL

Target: T1, peptide on HLA-B*07:02
Assay: activation reporter or marker

| Binder | binding result |
| --- | --- |
| B1 | recognises |
| B2 | recognises |
| B3 | recognises |
| B4 | recognises |
| B5 | recognises |
| B6 | recognises |

— article PMC11480844 (2024)
